# Experimental data from patent US20250382353A1 (LA JOLLA INSTITUTE FOR IMMUNOLOGY, published 2025).
# Tests used:
# Experiment in all cases: cell-based or functional assay
# [1] = target: rVSV-G614 spike (SARS-CoV-2, UniProt P0DTC2 14-1252)
# [2] = target: rVSV-Delta spike (SARS-CoV-2 Delta, UniProt P0DTC2 14-1252)
# [3] = target: rVSV-Omicron spike (SARS-CoV-2 Omicron, UniProt P0DTC2 14-1252)
Binder,"IC50 (ng/mL), neutralization of rVSV-G614 pseudovirions on Vero cells [1]","IC50 (ng/mL), neutralization of rVSV-Delta pseudovirions on Vero cells [2]","IC50 (ng/mL), neutralization of rVSV-Omicron pseudovirions on Vero cells [3]"
"LJI_491-39 (2E6) (antibody, V domains shown) VH: EVQLVQSGGGLVQPGGSLKLSCAASGFTFSGSAMHWVRQASGKGLEWVGHIRSKANSYATAYAASKGRFTISRDDSKNTAYLQMNSLKTEDTAVYYCTREDIVGVPVAKDWFDPWGQGTLVTVS VL: DIQMTQSPSSLFASVGDRVTITCRASQSISSYLNWYQQKPGKAPKLLIYAASSLQSGVPSRFSGSGFGTDFTLTISSLQPEDFATYYCQQSYSTLSITFGQGTRLEIKR",15 ng/mL,324 ng/mL,88 ng/mL
"LJI_491-27 (1C3) (antibody, V domains shown) VH: QVQLLESGGGLVQPGRSLRLSCAASGFTFDDYAMHWVRQPPGKGLEWVSGSSWNSGSVVYADSVKGRFTISRDSAKNSLHLQMNSLRVEDTALYYCAKAVDPTRGSYSPDYGFDIWGQGTMVTVS VL: not shown",8 ng/mL,12 ng/mL,3 ng/mL
